Paper PMC7960600, “A DARPin targeting activated Mac-1 is a novel diagnostic tool and potential anti-inflammatory agent in myocarditis, sepsis and myocardial infarction” (Basic Research in Cardiology, 2021)

Biological target: T1, human ICAM-1 (R&D Systems) (human, UniProt P05362 28-480)
T1 construct: ICAM-1, human, recombinant, bought; No catalogue number printed; also called recombinant human ICAM-1; source: bought: R&D Systems
Test: ELISA; 96-well Maxisorb plates coated with 0.1 µM human or mouse ICAM-1 (or BSA, 30 µM); recombinant human or mouse αM I-domain added; anti-His-HRP, OD 450 nm
Conditions: both partners purified

T1 sequence (P05362 28-480): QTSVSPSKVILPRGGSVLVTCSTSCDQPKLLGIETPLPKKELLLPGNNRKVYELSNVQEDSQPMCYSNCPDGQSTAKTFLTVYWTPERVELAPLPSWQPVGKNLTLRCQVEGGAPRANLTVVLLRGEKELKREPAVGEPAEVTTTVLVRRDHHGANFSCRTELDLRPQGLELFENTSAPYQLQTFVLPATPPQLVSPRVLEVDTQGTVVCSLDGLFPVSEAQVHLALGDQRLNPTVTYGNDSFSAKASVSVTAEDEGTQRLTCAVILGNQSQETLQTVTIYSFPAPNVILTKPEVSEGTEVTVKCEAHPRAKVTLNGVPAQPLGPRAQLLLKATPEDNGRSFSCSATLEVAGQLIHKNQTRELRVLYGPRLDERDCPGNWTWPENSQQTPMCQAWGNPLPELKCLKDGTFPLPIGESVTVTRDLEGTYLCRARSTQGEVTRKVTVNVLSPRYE

B1: recombinant human αM I-domain (wild type) (domain or fragment)
chain: RQQPQKFPEALRGCPQEDSDIAFLIDGSGSIIPHDFRRMKEFVSTVMEQLKKSKTLFSLMQYSEEFRIHFTFKEFQNNPNPRSLVKPITQLLGRTHTATGIRKVVRELFNITNGARKNAFKILVVITDGEKFGDPLGYEDVIPEADREGVIRYVIGVGDAFRSEKSRQELNTIASKPPRDHVFQVNNFEALKTIQNQLREKIFAIEGTQTGSSSSFEHEMSQEGFSAAALEHHHHHH
notes: I-domain of the αM chain (CD11b) of human Mac-1; no start methionine or leader is printed; source: E. coli BL21 DE3 (vector pET-20b(+)), purified (Ni beads, dialysed against PBS); not shown: His6, C-terminal, kept
  binding result: binds
